# In PMC6472409, “Dishevelled-3 conformation dynamics analyzed by FRET-based biosensors reveals a key role of casein kinase 1” (Nature Communications, 2019):
# What was measured:
# [1] = test system: DVL3 membrane recruitment by FZD6 in HEK293 cells; experiment: FZD6-dependent membrane recruitment of DVL3, immunofluorescence; assay type: cell-based, human; parameters: key to Non-recruited (DVL3 membrane recruitment): number of cells out of 100 positive cells scored; conditions: Fig 8c
# Excerpt: First, we analyzed the preferred subcellular localization of DVL3 (as introduced in Fig. 2c)[10],[14]. […] Next, we investigated if DVL3 conformation correlates with the capacity of DVL3 to be recruited by FZD6, a key Wnt receptor, to the plasma membrane. For this purpose, we co-expressed FZD6 and analyzed membrane recruitment of DVL3 in FZD6-positive cells by immunofluorescence. Individual cells were categorized as: not recruited (Fig. 8b, no DVL3 in the membrane), partially recruited (clear membrane as well as cytoplasmic localization), and fully recruited (predominantly plasma membrane localization, Fig. 8c, left). […] In the last readout we analyzed the capacity of DVL3 to activate downstream Wnt/β-catenin pathway monitored by TopFlash reporter assay (Fig. 8d). […] On the other hand, under conditions that favor the open conformation both activation as well as inhibition of the Wnt/β-catenin pathway was evident.
# For immunofluorescence, cells were seeded (40,000 per well) on 24-well plates with gelatin-coated coverslips and transfected, as indicated, with 0.1 μg of each corresponding plasmid (0.3 μg of mCherry-FZD6) for 6 h. For western blotting and Dual Luciferase TopFlash/Renilla Reporter Assay, cells were seeded (60,000 per well) directly on 24-well plates with 0.1 μg of each corresponding plasmid (if not indicated otherwise) for 6 h. For coimmunoprecipitation, cells were seeded (4.4 × 10^6) on 10-cm dishes and transfected with 1 μg of each corresponding plasmid. The next day after seeding, cells were transfected using polyethyleneimine (PEI) in a stoichiometry of 6 μl of PEI per 1 μg of DNA for 6 h and were harvested 24 h after transfection. The following plasmids used in HEK293 cells have been described previously: FLAG-DVL3 wt[47], CK1ϵ wt[48], mCherry-FZD6 (ref. [37]), and dominant-negative CK1ϵ P3 (ref. [33]). The ECFP-DVL3 wt plasmid was made by Gateway Technology (via LR recombination according to the manufacturer’s instructions; Thermo Fisher Scientific, #11791020) from the donor plasmid pDONR221 DVL3 (DNASU, #FLH178665.01x) and the destination plasmid pdECFP (LMBP, #4548). The HA-DVL3 wt plasmid was made by Gateway Technology from the donor plasmid pDONR221 DVL3 (DNASU, #FLH178665.01x) and the destination plasmid pcDNA3.1 N-term HA (gift from Erich Nigg).
# Cells were seeded on gelatin-coated coverslips in 24-well plates and were transfected the next day. Cells were fixed 24 h later in fresh 4% paraformaldehyde, permeabilized with 0.5% Triton X-100, blocked with PBS/BSA/Triton/Azide buffer (PBTA) [3% (wt/vol) BSA, 0.25% Triton, 0.01% NaN3] for 1 h, and incubated overnight with primary antibodies (in dilution 1:500) in PBTA at 4 °C. The next day, the coverslips were washed in PBS and incubated with secondary antibodies conjugated to Alexa Fluor 488 (Invitrogen A11001) or/and Alexa Fluor 594 (Invitrogen A11058) (all in dilution 1:1000), washed with PBS [in case of samples containing FLAG-DVL3 WT and derived variants stained with DAPI (1:5000)], and all coverslips were mounted on microscopic slides. Cells were then visualized on an Olympus IX51 fluorescent microscope using ×40 air or ×100 oil objectives and/or an Olympus Fluoview 500 confocal laser scanning microscope IX71 using ×100 oil objective. One hundred positive cells per experiment (n = 3) were analyzed and scored according to their phenotype into two/three categories (punctae/even); or non-recruited/partially/fully recruited for FZD6-dependent recruitment of DVL3. The antibodies used were as follows: anti-FLAG M2 (Sigma-Aldrich, #F1804), anti-DVL3 (Santa Cruz, #sc-8027), anti-CK1ɛ (Santa Cruz, #sc-6471), anti-RFP (Chromotek, #5h9) and anti-GFP (Fitzgerald, #20R-GR-011).
# Wnt/β-catenin pathway = experiment: Dual Luciferase TopFlash/Renilla Reporter Assay; assay type: cell-based, human; conditions: for TopFlash relative to DVL3 wt (= 1) / TopFlash in CK1e-/- relative to CK1e wt (= 1): Fig 8d; for TopFlash relative to ctrl (= 1): Suppl. Fig. 2a; for TopFlash FlAsH III (CK1e-/-), relative to ctrl (= 1): Suppl. Fig. 4f; for TopFlash FlAsH III (CK1e-/-), relative to ctrl (= 1) / TopFlash in CK1e-/- relative to CK1e wt (= 1): CK1e-/- cells
# Description: Cells were transfected 24 h after seeding with 0.1 μg of Super8X TopFlash construct, 0.1 μg of Renilla luciferase construct, and 0.1 μg of corresponding plasmids per well for 6 h in a 24-well plate. As for the ECFP-DVL3 FIII wt stable cell lines, transfection was followed by 4 h induction of tetracycline (1 µg/ml) and 8 h treatment of CM:DMEM (1:1 ratio). For performing this assay, Promega Dual Luciferase assay kit (Promega, #E1910) was used according to the manufacturer’s instructions. Luminescence was measured by a Hidex Bioscan Plate Chameleon Luminometer. Results are depicted as the ratio of TopFlash and Renilla signal (TopFlash fold induction), which was normalized for each experiment to certain control column (normalized TopFlash fold induction). Data were analyzed by MS Excel 2007 and GraphPad Prism 6 and results were shown as the means ± S.D. (number of experiments indicated ad hoc).
# [2] = sensor FlAsH III, replicate of grid row r5
# [3] = sensor FlAsH III, replicate of grid row r6
# [4] = sensor FlAsH III, replicate of grid row r7
# [5] = panel of CK1e-/- comparison, wt cells, exp1
# [6] = panel of CK1e-/- comparison, wt cells, exp3
molecule,measurement,setting,value
Ck1e,Fully recruited (DVL3 membrane recruitment),[1]; exp1,8
same,Non-recruited (DVL3 membrane recruitment),[1]; exp1,58
same,Partially recruited (DVL3 membrane recruitment),[1]; exp1,34
same,Fully recruited (DVL3 membrane recruitment),[1]; exp2,43
same,Non-recruited (DVL3 membrane recruitment),[1]; exp2,27
same,Partially recruited (DVL3 membrane recruitment),[1]; exp2,30
same,Fully recruited (DVL3 membrane recruitment),[1]; exp3,15
same,Non-recruited (DVL3 membrane recruitment),[1]; exp3,63
same,Partially recruited (DVL3 membrane recruitment),[1]; exp3,22
same,TopFlash relative to DVL3 wt (= 1),Wnt/β-catenin pathway; replicate of grid row r4,2.8
same,TopFlash relative to DVL3 wt (= 1),Wnt/β-catenin pathway; replicate of grid row r5,2.5
same,TopFlash relative to DVL3 wt (= 1),Wnt/β-catenin pathway; replicate of grid row r6,1.85
CK1e,TopFlash relative to ctrl (= 1),"Wnt/β-catenin pathway; sensor FlAsH I, replicate of grid row r5",1.477
same,TopFlash relative to ctrl (= 1),"Wnt/β-catenin pathway; sensor FlAsH I, replicate of grid row r6",1.51
same,TopFlash relative to ctrl (= 1),"Wnt/β-catenin pathway; sensor FlAsH I, replicate of grid row r7",1.233
same,TopFlash relative to ctrl (= 1),"Wnt/β-catenin pathway; sensor FlAsH II, replicate of grid row r5",1.907
same,TopFlash relative to ctrl (= 1),"Wnt/β-catenin pathway; sensor FlAsH II, replicate of grid row r6",2.332
same,TopFlash relative to ctrl (= 1),"Wnt/β-catenin pathway; sensor FlAsH II, replicate of grid row r7",1.874
same,TopFlash relative to ctrl (= 1),Wnt/β-catenin pathway; [2],2.614
same,TopFlash relative to ctrl (= 1),Wnt/β-catenin pathway; [3],1.858
same,TopFlash relative to ctrl (= 1),Wnt/β-catenin pathway; [4],2.849
same,TopFlash relative to ctrl (= 1),"Wnt/β-catenin pathway; sensor FlAsH IV, replicate of grid row r5",3.481
same,TopFlash relative to ctrl (= 1),"Wnt/β-catenin pathway; sensor FlAsH IV, replicate of grid row r6",2.7
same,TopFlash relative to ctrl (= 1),"Wnt/β-catenin pathway; sensor FlAsH IV, replicate of grid row r7",1.4298
same,"TopFlash FlAsH III (CK1e-/-), relative to ctrl (= 1)",Wnt/β-catenin pathway; [2],2.409
same,"TopFlash FlAsH III (CK1e-/-), relative to ctrl (= 1)",Wnt/β-catenin pathway; [3],2.306
same,"TopFlash FlAsH III (CK1e-/-), relative to ctrl (= 1)",Wnt/β-catenin pathway; [4],3.0297
"DVL3 wt (protein, UniProt Q92997 1-716, looked up) Segment polarity protein …: MGETKIIYHLDGQETPYLVKLPLPAERVTLADFKGVLQRPSYKFFFKSMDDDFGVVKEEISDDNAKLPCFNGRVVSWLVSAEGSHPDPAPFCADNPSELPPPMERTGGIGDSRPPSFHPHAGGGSQENLDNDTETDSLVSAQRERPRRRDGPEHATRLNGTAKGERRREPGGYDSSSTLMSSELETTSFFDSDEDDSTSRFSSSTEQSSASRLMRRHKRRRRKQKVSRIERSSSFSSITDSTMSLNIITVTLNMEKYNFLGISIVGQSNERGDGGIYIGSIMKGGAVAADGRIEPGDMLLQVNEINFENMSNDDAVRVLREIVHKPGPITLTVAKCWDPSPRGCFTLPRSEPIRPIDPAAWVSHTAAMTGTFPAYGMSPSLSTITSTSSSITSSIPDTERLDDFHLSIHSDMAAIVKAMASPESGLEVRDRMWLKITIPNAFIGSDVVDWLYHNVEGFTDRREARKYASNLLKAGFIRHTVNKITFSEQCYYIFGDLCGNMANLSLHDHDGSSGASDQDTLAPLPHPGAAPWPMAFPYQYPPPPHPYNPHPGFPELGYSYGGGSASSQHSEGSRSSGSNRSGSDRRKEKDPKAGDSKSGGSGSESDHTTRSSLRGPRERAPSERSGPAASEHSHRSHHSLASSLRSHHTHPSYGPPGVPPLYGPPMLMMPPPPAAMGPPGAPPGRDLASVPPELTASRQSFRMAMGNPSEFFVDVM",Fully recruited (DVL3 membrane recruitment),"[1]; CK1e-/- cells, exp1",31
same,Non-recruited (DVL3 membrane recruitment),"[1]; CK1e-/- cells, exp1",33
same,Partially recruited (DVL3 membrane recruitment),"[1]; CK1e-/- cells, exp1",36
same,Fully recruited (DVL3 membrane recruitment),"[1]; CK1e-/- cells, exp2",16
same,Non-recruited (DVL3 membrane recruitment),"[1]; CK1e-/- cells, exp2",44
same,Partially recruited (DVL3 membrane recruitment),"[1]; CK1e-/- cells, exp2",40
same,Fully recruited (DVL3 membrane recruitment),"[1]; CK1e-/- cells, exp3",26
same,Non-recruited (DVL3 membrane recruitment),"[1]; CK1e-/- cells, exp3",50
same,Partially recruited (DVL3 membrane recruitment),"[1]; CK1e-/- cells, exp3",24
same,Fully recruited (DVL3 membrane recruitment),[1]; exp1,11
same,Non-recruited (DVL3 membrane recruitment),[1]; exp1,58
same,Partially recruited (DVL3 membrane recruitment),[1]; exp1,31
same,Fully recruited (DVL3 membrane recruitment),[1]; exp2,20
same,Non-recruited (DVL3 membrane recruitment),[1]; exp2,34
same,Partially recruited (DVL3 membrane recruitment),[1]; exp2,46
same,Fully recruited (DVL3 membrane recruitment),[1]; exp3,22
same,Non-recruited (DVL3 membrane recruitment),[1]; exp3,48
same,Partially recruited (DVL3 membrane recruitment),[1]; exp3,30
same,Fully recruited (DVL3 membrane recruitment),[1]; [5],8
same,Non-recruited (DVL3 membrane recruitment),[1]; [5],65
same,Partially recruited (DVL3 membrane recruitment),[1]; [5],27
same,Fully recruited (DVL3 membrane recruitment),[1]; [6],20
same,Non-recruited (DVL3 membrane recruitment),[1]; [6],51
same,Partially recruited (DVL3 membrane recruitment),[1]; [6],29
same,TopFlash in CK1e-/- relative to CK1e wt (= 1),Wnt/β-catenin pathway; replicate of grid row r4,0.2303
same,TopFlash in CK1e-/- relative to CK1e wt (= 1),Wnt/β-catenin pathway; replicate of grid row r5,0.1152
same,TopFlash in CK1e-/- relative to CK1e wt (= 1),Wnt/β-catenin pathway; replicate of grid row r6,0.24
same,TopFlash in CK1e-/- relative to CK1e wt (= 1),Wnt/β-catenin pathway; replicate of grid row r7,0.2094
